Where two headings read alike, the source gives them in different places.
B1: human GPR156 EM (residues 1–346), apo (receptor)
chain: MEPEINCSELCDSFPGQELDRRPLHDLCKTTITSSHHSSKTISSLSPVLLGIVWTFLSCGLLLILFFLAFTIHCRKNRIVKMSSPNLNIVTLLGSCLTYSSAYLFGIQDVLVGSSMETLIQTRLSMLCIGTSLVFGPILGKSWRLYKVFTQRVPDKRVIIKDLQLLGLVAALLMADVILLMTWVLTDPIQCLQILSVSMTVTGKDVSCTSTSTHFCASRYSDVWIALIWGCKGLLLLYGAYLAGLTGHVSSPPVNQSLTIMVGVNLLVLAAGLLFVVTRYLHSWPNLVFGLTSGGIFVCTTTINCFIFIPQLKQWKAFEEENQTIRRMAKYFSTPNKSFHTQYGEE
B2: human GPR156 EM (residues 1–346) in the GPR156–Gi3 complex (receptor)
chain: B1 chain

Columns and labels:
cryo-EM structure [1] = biological target: the molecule itself; experiment: cryo-EM structure
cryo-EM structure [2] = biological target: the molecule itself; experiment: cryo-EM structure; remark: listed apart in the source

Protein	stoichiometry N (cryo-EM structure [1])	stoichiometry N (cryo-EM structure [2])
B1	2	–
B2	–	2
